Data published in patent publication US20250084178A1 (ARCUS BIOSCIENCES, published 2025).
Read-outs that look alike come from different tables or passages of the source. Blank lines part the entries; values can stand above or below the binder they belong to.

What was measured:
[1] = target: T1, human CD39 expressed on the cell surface (human, UniProt P49961 1-510); assay: cell-based or functional assay
T1 sequence: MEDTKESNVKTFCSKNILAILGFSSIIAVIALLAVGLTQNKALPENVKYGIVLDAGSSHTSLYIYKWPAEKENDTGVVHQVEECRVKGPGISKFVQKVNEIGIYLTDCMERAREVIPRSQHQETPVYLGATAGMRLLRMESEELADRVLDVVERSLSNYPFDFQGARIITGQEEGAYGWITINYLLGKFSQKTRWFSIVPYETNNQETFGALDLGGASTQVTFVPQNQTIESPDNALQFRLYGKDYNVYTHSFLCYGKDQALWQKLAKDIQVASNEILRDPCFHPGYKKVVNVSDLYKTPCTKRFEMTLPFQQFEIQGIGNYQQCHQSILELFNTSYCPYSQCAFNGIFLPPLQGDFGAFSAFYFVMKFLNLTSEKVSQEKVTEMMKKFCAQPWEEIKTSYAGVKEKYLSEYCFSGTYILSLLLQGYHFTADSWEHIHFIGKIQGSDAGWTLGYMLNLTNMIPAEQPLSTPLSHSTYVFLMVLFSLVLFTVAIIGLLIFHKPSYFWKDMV

[2] = target: T2, cynomolgus monkey CD39 expressed on HEK-293 cells (cynomolgus monkey, UniProt P49961 5-510 (human entry)); assay: FACS on HEK293 cells overexpressing cynomolgus CD39
T2 construct: also called Cynomolgus Monkey CD39-HEK293
T2 chain: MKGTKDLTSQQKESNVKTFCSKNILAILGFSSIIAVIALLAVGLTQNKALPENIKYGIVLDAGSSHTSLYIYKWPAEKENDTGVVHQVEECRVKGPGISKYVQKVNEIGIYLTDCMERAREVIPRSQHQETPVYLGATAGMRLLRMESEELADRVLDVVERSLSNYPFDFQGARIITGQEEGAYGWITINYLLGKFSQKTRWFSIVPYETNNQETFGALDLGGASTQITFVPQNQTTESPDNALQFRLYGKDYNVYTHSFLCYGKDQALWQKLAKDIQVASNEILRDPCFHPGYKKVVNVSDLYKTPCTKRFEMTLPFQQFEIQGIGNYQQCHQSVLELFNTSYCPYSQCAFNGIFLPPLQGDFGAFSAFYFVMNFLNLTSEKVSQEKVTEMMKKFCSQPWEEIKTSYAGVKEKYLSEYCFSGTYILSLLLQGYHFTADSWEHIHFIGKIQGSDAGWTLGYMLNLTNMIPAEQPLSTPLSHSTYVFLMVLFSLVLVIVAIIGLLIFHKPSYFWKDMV

[3] = target: T1, human CD39 expressed on the cell surface; assay: FACS on CHO-K1 cells overexpressing human CD39
[4] = target: T3, soluble His-tagged human CD39 ECD protein (human, UniProt P49961 38-478); assay: SPR (Biacore 8K), antibody captured via anti-human Fc, CD39 ECD analyte
T3 construct: also called human CD39 ECD His-tagged antigen; Sino Biological Cat. No. 16020-H08B
T3 sequence: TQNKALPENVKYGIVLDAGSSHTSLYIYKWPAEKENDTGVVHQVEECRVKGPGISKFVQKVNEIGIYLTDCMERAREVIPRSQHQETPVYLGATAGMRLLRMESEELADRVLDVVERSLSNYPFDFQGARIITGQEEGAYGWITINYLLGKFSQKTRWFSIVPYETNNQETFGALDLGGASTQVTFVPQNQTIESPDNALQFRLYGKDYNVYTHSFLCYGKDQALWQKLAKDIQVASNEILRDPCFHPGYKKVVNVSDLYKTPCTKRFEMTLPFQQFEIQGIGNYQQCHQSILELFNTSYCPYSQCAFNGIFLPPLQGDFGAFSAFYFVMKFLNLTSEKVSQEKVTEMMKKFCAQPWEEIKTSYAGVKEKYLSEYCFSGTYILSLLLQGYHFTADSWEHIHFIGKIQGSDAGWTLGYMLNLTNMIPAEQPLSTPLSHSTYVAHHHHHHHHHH

[5] = target: T1, human CD39 expressed on the cell surface; assay: flow cytometry on purified human CD14+ monocytes, 400 uM ATP
[6] = target: T1, human CD39 expressed on the cell surface; assay: cell-based or functional assay; remark: listed apart in the source
[7] = target: T2, cynomolgus monkey CD39 expressed on …; assay: FACS on HEK293 cells overexpressing cynomolgus CD39
[8] = target: T4, recombinant human CD39 (soluble) (human, UniProt P49961 38-478, limits assumed); assay: cell-based or functional assay
T4 sequence (looked up): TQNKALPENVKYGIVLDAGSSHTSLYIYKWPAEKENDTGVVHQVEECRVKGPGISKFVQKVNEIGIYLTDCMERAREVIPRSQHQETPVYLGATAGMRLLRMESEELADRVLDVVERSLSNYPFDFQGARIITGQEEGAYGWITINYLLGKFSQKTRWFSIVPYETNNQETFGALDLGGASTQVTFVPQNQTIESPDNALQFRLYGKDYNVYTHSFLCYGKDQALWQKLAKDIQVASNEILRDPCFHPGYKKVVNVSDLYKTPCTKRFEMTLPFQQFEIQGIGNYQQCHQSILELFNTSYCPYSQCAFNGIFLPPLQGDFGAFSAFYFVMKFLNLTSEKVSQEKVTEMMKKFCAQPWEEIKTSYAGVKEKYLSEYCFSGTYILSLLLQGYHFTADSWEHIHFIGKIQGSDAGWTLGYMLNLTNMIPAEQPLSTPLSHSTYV

[9] = target: T1, human CD39 expressed on the cell surface; assay: FACS on CHO-K1 cells overexpressing human CD39; remark: listed apart in the source
[10] = target: T1, human CD39 expressed on the cell surface; assay: cell-based or functional assay; remark: listed apart in the source
[11] = target: T3, soluble His-tagged human CD39 ECD …; assay: SPR (Biacore 8K), antibody captured via anti-human Fc, CD39 ECD analyte, 25 C
[12] = target: T1, human CD39 expressed on the cell surface; assay: flow cytometry on purified human CD14+ monocytes, 0 uM ATP
[13] = target: T1, human CD39 expressed on the cell surface; assay: cell-based or functional assay; remark: listed apart in the source
[14] = target: T5, murine CD39 expressed on HEK-293 cells (murine, UniProt P55772 1-510); assay: FACS on HEK-293 cells overexpressing murine CD39 (method of Example 1)
T5 construct: also called mouse CD39
T5 sequence: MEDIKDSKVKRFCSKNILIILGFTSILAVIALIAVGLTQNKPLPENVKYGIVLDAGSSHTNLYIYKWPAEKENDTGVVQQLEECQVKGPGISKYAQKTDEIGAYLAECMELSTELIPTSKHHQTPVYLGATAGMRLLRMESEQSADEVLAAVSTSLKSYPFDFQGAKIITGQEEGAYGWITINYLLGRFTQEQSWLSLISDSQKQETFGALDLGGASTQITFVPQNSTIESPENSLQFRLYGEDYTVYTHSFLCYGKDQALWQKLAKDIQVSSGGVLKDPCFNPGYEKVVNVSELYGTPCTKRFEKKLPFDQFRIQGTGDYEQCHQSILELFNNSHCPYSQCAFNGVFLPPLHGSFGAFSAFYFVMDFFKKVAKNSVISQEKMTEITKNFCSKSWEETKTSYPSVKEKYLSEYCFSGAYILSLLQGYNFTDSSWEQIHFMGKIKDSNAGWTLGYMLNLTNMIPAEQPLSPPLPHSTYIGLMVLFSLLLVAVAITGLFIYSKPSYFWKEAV

Human THP-1 CD39 inhibition IC50 [1]: 0.3 nM
EC50 [2]: 0.81 nM
EC50 [3]: 1.69 nM
Kd [4]: 0.613 nM
koff [4]: 0.000684 s⁻¹
kon [4]: 1.12e+06 M⁻¹ s⁻¹
B1: hu31.6_IGG4.P (antibody, human IgG4 S228P, kappa, V domains shown)
VH: EVQLVQSGAEVKKPGATVKISCKVSGDSITAYFMHWVQQAPGKGLEWMGRIDPDHERTKYAEKFKNRVTITADTSTNTVYMELSSLRSEDTAVYYCATERVPGFETDYWGQGVMVTVSS
VL: DIVLTQSPALAVSPGQRATITCRTQQTVDHYGTTYMNWYQQKPGQPPKLLIYLASSLASGVPARFSGSGSGTDFTLTINPVEADDTANYYCQQSRNLWTFGGGTKVEIKR
notes: humanized variant of antibody 31 (VH2 + VL1), IgG4 (S228P)

Human THP-1 CD39 inhibition IC50 [1]: 0.25 nM
EC50 [2]: 1.01 nM
EC50 [3]: 1.83 nM
Kd [4]: 0.496 nM
koff [4]: 0.000615 s⁻¹
kon [4]: 1.24e+06 M⁻¹ s⁻¹
B2: hu31.7_IGG4.P (antibody, human IgG4 S228P, kappa, V domains shown)
VH: EVQLVQSGAEVKKPGATVKISCKVSGDSITAYFMHWVQQAPGKGLEWMGRIDPDHERTKYAEKFKNRVTITADTSTNTVYMELSSLRSEDTAVYYCATERVPGFETDYWGQGVMVTVSS
VL: DIVMTQSPDLAVSLGERATINCRTQQTVDHYGTTYMNWYQQKPGQPPKLLIYLASSLASGVPDRFSGSGSGTDFTLTISSLQAEDVAVYYCQQSRNLWTFGGGTKVEIKR
notes: humanized variant of antibody 31 (VH2 + VL2), IgG4 (S228P)

EC50 [5]: 49 nM
IC50, CD39 enzymatic inhibition on SK-MEL-5 cells, 20 uM ATP [6]: 5.4 nM
Max Inhibition (%), SK-MEL-5 cells [6]: 55%
EC50 [7]: 4.3 nM
IC50, inhibition of recombinant CD39 enzymatic activity, 20 uM ATP [8]: 1.8 nM
Max Inhibition (%), recombinant CD39, 20 uM ATP [8]: 100%
EC50 [9]: 9.04 nM
IC50, CD39 enzymatic inhibition on THP-1 cells, 20 uM ATP [10]: 0.75 nM
Max Inhibition (%), THP-1 cells [10]: 75%
Kd [11]: 0.443 nM
koff [11]: 0.0004 s⁻¹
kon [11]: 902000 M⁻¹ s⁻¹
EC50 [12]: 61 nM
Human THP-1 CD39 inhibition IC50 [13]: 0.44 nM
binding result [14]: no binding
B3: ch19_IGG4.P (antibody, human IgG4 S228P, kappa, V domains shown)
VH: QVQLKETGPGLVQPTQTLSITCTVSGFSLTSYFTQWVRQTPGKGLEWMGFIRSGGSTQYNSAFKSRLSISRDTSKNQVFLKMNSLKTEDTGVYYCARDRPDYHDGTYGVLDVWGQGASVTVSS
VL: DIRMTQSPASLSASLGETVNIECLASEDIDSDLAWYQKKPGKSPQLLIYNGNALQNGVPSRFSGSGSGTHFSLKINSLQSEDVATYFCQQYINYPYTFGGGTKLELRR
notes: rat/human chimera of antibody 19, human IgG4 (S228P), kappa
